In patent US20250313635A1 (Merck Sharp & Dohme, published 2025):
Changes are numbered by the printed parent chain.

B1: Ab-29 (antibody, V domains shown)
VH: ELQLQESGPGLVKPSETLSLTCTVSGGSISSNSYYWGWIRQPPGKGLEWIGSIYYSGSTYYNPSLKSRVTISVDTSKNQFSLKLSSVTAADTAVYYCARVRRVAGRGDSYYYYYGMDVWGQGTTVTVSS
VL: DIQMTQSPSSVSASVGDRVTITCRASQGISRWLAWYQQKPGKAPKLLIYAASSLQSGVPSRFSGSGSGTDFTLTISSLQPEDFATYYCQQAISHPWTFGGGTKVEIK
B2: Ab-31 (antibody, V domains shown)
VH: EVQLQESGPGLVKPSETLSLTCAVSGYSISSGYYWGWIRQPPGKGLEWIGSIYHSGNTYYNPSLKSRVTISVDTSKNQFSLKLSSVTAADTAVYYCARVPRYSRGDAYYYYGMDVWGQGTTVTVSS
VL: DIQMTQSPSTLSASVGDRVTITCRASQSIGSWLAWYQQKPGKAPKLLIYKASSLESGVPSRFSGSGSGTEFTLTISSLQPDDFATYYCQQSGPYPWTFGGGTKVEIK
B3: Ab-30 (antibody, V domains shown)
VH: B2 VH
VL: DIQMTQSPSTLSASVGDRVTITCRASQSISSWLAWYQQKPGKAPKLLIYKASSLESGVPSRFSGSGSGTEFTLTISSLQPDDFATYYCQQVKIYPPYTFGGGTKVEIK
B4: Ab-32 (antibody, V domains shown)
VH: B2 VH
VL: EIVLTQSPGTLSLSPGERATLSCRASQSVRSSYLAWYQQKPGQAPRLLIYGASSRATGIPDRFSGSGSGTDFTLTISRLEPEDFAVYYCQQAGLVFTFGGGTKVEIK
B5: Ab-33 (antibody, V domains shown)
VH: EVQLVQSGAEVKKPGSSVKVSCKASGGTFSNYAISWVRQAPGQGLEWMGGIIPIFGTANYAQKFQGRVTITADESTSTAYMELSSLRSEDTAVYYCARAPRSARGDMYYYYYGMDVWGQGTTVTVSS
VL: B2 VL with S91Y, P93R

Tests used:
[1] = target: T1, recombinant mouse αvβ5 integrin extracellular domains (mouse, UniProt P43406 1-988; O70309 1-719, Biotinylated on the Avitag (tag not in the letters); interchain disulfide between the coiled-coils (not in the letters).); test: AlphaLISA blocking of mouse vitronectin binding
T1 construct: Soluble heterodimer co-expressed in Expi293 cells; also called mαvβ5
T1 sequence (P43406 31-988 limits assumed, form in doubt, chain 1 of 2): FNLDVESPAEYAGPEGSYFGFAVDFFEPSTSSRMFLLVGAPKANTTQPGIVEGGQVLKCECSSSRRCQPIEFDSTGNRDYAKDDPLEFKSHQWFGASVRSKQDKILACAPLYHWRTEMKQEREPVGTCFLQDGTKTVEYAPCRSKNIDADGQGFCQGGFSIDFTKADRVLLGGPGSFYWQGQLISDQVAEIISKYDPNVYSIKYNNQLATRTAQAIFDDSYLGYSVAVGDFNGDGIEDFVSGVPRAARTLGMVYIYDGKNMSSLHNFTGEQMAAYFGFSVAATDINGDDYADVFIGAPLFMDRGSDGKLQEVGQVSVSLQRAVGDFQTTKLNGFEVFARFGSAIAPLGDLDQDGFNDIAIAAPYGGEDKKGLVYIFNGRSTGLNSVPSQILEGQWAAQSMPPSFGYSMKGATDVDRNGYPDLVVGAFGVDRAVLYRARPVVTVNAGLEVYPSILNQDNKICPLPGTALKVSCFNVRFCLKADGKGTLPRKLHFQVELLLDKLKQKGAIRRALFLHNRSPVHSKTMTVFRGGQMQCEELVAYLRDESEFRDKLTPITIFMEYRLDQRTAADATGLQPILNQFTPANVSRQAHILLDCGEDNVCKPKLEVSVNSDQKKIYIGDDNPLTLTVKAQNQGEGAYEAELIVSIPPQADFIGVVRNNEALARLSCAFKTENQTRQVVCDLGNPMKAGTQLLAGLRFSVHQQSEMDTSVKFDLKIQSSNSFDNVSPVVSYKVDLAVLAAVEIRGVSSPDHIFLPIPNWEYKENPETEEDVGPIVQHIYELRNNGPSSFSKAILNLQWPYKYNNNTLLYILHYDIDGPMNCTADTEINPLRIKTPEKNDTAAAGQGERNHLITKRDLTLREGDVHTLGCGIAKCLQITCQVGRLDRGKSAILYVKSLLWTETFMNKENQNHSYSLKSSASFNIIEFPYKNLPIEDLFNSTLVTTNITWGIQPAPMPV
T1 sequence (O70309 24-719 limits assumed, form in doubt, chain 2 of 2): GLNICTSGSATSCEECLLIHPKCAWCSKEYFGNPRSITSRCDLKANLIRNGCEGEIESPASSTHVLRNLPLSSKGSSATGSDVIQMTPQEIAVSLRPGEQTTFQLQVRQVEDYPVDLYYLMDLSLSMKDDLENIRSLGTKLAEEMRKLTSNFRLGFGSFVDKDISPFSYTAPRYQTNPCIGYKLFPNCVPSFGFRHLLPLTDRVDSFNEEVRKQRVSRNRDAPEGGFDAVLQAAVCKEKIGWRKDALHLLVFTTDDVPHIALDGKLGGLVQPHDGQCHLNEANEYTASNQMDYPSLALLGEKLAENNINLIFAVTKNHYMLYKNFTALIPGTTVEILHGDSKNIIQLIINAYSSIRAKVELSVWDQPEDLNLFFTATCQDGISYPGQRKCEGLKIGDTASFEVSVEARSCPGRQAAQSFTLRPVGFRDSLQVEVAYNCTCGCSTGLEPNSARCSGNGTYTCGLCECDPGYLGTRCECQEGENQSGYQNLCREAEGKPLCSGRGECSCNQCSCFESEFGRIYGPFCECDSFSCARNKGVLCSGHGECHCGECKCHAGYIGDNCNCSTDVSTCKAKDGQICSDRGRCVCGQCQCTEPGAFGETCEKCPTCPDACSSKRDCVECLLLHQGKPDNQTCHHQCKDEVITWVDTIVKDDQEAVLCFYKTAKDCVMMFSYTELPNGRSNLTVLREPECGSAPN
Protocol: (§1) Briefly, the testing antibody (8 μL) was added as a 4×(of Final testing concentration) solution in the HEPES buffer described previously into a 384w AlphaPlate™ (Perkin Elmer #6005350). Then the integrin and ligand were added sequentially as 8×(4 μL each). Plates were sealed and incubated at room temperature for two hours. Then 4×acceptor bead solution ([…]) was added, and the plates were resealed and incubated at room temperature (RT) for one hour. Finally, 4×([…]) donor beads solution was added in a darkened room and incubated for 45 minutes at room temperature. Plates were read on the Envision (Perkin Elmer) in AlphaScreen™ mode within three hours of donor bead addition.

[2] = target: T2, recombinant mouse αvβ1 integrin extracellular domains (mouse, UniProt P43406 1-988; P09055 1-728, Biotinylated on the Avitag (tag not in the letters); interchain disulfide between the coiled-coils (not in the letters).); test: ForteBio Octet Red (BLI)
T2 construct: Soluble heterodimer co-expressed in Expi293 cells; also called mαvβ1
T2 sequence (P43406 31-988 limits assumed, form in doubt, chain 1 of 2): as the sequence (P43406 31-988 limits assumed, form in doubt, chain 1 of 2) above
T2 sequence (P09055 21-728 limits assumed, form in doubt, chain 2 of 2): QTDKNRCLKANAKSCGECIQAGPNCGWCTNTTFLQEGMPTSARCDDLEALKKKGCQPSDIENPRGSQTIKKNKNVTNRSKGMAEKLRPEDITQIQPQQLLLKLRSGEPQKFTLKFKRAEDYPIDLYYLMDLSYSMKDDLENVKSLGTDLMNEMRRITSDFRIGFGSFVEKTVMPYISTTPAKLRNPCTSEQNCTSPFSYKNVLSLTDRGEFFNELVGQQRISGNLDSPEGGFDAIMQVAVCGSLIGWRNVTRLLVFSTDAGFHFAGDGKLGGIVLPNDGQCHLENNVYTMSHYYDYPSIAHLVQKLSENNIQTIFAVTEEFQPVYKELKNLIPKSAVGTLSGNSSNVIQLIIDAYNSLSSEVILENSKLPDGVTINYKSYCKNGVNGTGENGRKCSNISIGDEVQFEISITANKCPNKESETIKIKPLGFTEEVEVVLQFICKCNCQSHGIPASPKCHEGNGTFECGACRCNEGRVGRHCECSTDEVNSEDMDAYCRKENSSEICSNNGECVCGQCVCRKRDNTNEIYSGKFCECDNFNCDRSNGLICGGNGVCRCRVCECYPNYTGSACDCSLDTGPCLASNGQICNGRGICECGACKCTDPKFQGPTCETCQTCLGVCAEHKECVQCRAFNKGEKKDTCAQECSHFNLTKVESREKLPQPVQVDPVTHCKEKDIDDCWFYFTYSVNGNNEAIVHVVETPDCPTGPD

[3] = target: T3, recombinant human αvβ3 integrin extracellular domains (human, UniProt P06756 1-992; P05106 1-718, Secreted glycoprotein heterodimer. It is biotinylated on the omitted Avitag, and an interchain disulfide sits in the omitted coiled-coils.); test: AlphaLISA blocking of human vitronectin-GST binding
T3 construct: Soluble heterodimer co-expressed in Expi293 cells; also called hαvβ3; not shown: Alpha chain: acidic coiled-coil with cysteine and GG-Avitag; Beta chain: basic coiled-coil with cysteine and GG-Avitag

[4] = target: T4, recombinant human αvβ5 integrin extracellular domains (human, UniProt P06756 1-992; P18084 1-719, Secreted glycoprotein heterodimer. It is biotinylated on the omitted Avitag, and an interchain disulfide sits in the omitted coiled-coils.); test: as above
T4 construct: Soluble heterodimer co-expressed in Expi293 cells; also called hαvβ5; not shown: Alpha chain: acidic coiled-coil with cysteine and GG-Avitag; Beta chain: basic coiled-coil with cysteine and GG-Avitag

[5] = target: T5, recombinant human αvβ8 integrin extracellular domains (human, UniProt P06756 1-992; P26012 1-684, Biotinylated on the Avitag (tag not in the letters); interchain disulfide between the coiled-coils (not in the letters).); test: AlphaLISA blocking of human LAP binding
T5 construct: Soluble heterodimer co-expressed in Expi293 cells; also called hαvβ8

[6] = target: T6, recombinant human αvβ6 integrin extracellular domains (human, UniProt P06756 1-992; P18564 1-709, Biotinylated on the Avitag (tag not in the letters); interchain disulfide between the coiled-coils (not in the letters).); test: AlphaLISA blocking of human LAP binding
T6 construct: Soluble heterodimer co-expressed in Expi293 cells; also called hαvβ6

[7] = target: T7, recombinant mouse αvβ6 integrin extracellular domains (mouse, UniProt P43406 1-988; Q9Z0T9 1-706, Biotinylated on the Avitag (tag not in the letters); interchain disulfide between the coiled-coils (not in the letters).); test: AlphaLISA blocking of mouse LAP-6His binding
T7 construct: Soluble heterodimer co-expressed in Expi293 cells; also called mαvβ6
T7 sequence (P43406 31-988 limits assumed, form in doubt, chain 1 of 2): as the sequence (P43406 31-988 limits assumed, form in doubt, chain 1 of 2) above
T7 sequence (Q9Z0T9 22-706 limits assumed, form in doubt, chain 2 of 2): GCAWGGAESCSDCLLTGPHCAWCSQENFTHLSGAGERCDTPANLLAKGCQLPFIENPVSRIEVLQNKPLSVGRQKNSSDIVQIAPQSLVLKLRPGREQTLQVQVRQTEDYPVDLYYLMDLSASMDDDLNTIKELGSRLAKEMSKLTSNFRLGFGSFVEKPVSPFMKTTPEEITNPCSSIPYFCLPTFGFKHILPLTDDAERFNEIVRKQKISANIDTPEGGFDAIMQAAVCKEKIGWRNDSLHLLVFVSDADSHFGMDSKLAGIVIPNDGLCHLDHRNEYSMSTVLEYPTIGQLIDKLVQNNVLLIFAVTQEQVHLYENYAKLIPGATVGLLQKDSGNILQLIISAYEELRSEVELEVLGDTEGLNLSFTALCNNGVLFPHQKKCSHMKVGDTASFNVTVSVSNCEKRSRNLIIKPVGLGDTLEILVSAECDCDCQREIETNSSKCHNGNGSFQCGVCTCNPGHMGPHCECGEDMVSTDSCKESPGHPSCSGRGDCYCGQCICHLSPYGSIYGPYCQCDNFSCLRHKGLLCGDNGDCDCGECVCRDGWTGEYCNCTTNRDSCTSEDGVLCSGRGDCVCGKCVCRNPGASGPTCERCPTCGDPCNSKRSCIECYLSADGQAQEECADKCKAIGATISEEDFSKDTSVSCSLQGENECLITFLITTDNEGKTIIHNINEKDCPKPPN
Protocol: as §1

[8] = target: human αvβ1 integrin on CHOK1 stable cells (human, UniProt P06756 31-1048; P05556 21-798); test: cell-based or functional assay
[9] = target: mouse αvβ3 integrin on CHOK1 stable cells (mouse, UniProt P43406 31-1044; O54890 26-787); test: cell-based or functional assay
[10] = target: human αvβ6 integrin on CHOK1 stable cells (human, UniProt P06756 31-1048; P18564 22-788); test: cell-based or functional assay
[11] = target: mouse αvβ6 integrin on CHOK1 stable cells (mouse, UniProt P43406 31-1044; Q9Z0T9 22-787); test: cell-based or functional assay
[12] = target: mouse αvβ8 integrin on CHOK1 stable cells (mouse, UniProt P43406 31-1044; Q0VBD0 22-767); test: cell-based or functional assay
[13] = target: human αvβ8 integrin on CHOK1 stable cells (human, UniProt P06756 31-1048; P26012 43-769); test: cell-based or functional assay
[14] = target: mouse αvβ5 integrin on CHOK1 stable cells (mouse, UniProt P43406 31-1044; O70309 24-798); test: cell-based or functional assay
[15] = target: mouse αvβ1 integrin on CHOK1 stable cells (mouse, UniProt P43406 31-1044; P09055 21-798); test: cell-based or functional assay
mouse αvβ1 integrin on CHOK1 stable cells, sequence (P43406 31-1044, chain 1 of 2): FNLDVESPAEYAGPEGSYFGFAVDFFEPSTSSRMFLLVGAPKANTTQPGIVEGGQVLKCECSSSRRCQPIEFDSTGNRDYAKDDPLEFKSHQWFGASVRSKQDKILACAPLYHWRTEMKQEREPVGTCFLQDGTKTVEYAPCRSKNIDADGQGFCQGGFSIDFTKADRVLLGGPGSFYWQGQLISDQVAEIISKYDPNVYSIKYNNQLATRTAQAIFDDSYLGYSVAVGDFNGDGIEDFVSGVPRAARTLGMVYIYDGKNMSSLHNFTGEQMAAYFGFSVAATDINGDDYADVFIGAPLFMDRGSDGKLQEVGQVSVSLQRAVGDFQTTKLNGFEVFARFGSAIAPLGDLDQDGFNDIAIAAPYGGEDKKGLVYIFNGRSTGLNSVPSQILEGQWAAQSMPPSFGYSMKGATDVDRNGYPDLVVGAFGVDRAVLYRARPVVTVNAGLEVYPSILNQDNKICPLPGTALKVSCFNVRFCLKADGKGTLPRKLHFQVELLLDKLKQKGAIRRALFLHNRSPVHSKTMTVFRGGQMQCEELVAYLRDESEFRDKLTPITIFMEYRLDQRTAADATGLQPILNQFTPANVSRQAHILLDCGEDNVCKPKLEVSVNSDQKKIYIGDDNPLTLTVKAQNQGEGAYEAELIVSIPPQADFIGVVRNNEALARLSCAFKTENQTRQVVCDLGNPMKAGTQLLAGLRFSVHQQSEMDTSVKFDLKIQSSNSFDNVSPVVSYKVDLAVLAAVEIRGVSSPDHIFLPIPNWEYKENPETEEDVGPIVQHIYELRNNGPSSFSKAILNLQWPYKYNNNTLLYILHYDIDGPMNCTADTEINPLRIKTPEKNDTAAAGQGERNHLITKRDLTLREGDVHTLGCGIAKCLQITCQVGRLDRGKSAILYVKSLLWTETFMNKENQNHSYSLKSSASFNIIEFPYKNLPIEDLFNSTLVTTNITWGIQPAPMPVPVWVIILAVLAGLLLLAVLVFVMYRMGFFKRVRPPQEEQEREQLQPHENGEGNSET
mouse αvβ1 integrin on CHOK1 stable cells, sequence (P09055 21-798, chain 2 of 2): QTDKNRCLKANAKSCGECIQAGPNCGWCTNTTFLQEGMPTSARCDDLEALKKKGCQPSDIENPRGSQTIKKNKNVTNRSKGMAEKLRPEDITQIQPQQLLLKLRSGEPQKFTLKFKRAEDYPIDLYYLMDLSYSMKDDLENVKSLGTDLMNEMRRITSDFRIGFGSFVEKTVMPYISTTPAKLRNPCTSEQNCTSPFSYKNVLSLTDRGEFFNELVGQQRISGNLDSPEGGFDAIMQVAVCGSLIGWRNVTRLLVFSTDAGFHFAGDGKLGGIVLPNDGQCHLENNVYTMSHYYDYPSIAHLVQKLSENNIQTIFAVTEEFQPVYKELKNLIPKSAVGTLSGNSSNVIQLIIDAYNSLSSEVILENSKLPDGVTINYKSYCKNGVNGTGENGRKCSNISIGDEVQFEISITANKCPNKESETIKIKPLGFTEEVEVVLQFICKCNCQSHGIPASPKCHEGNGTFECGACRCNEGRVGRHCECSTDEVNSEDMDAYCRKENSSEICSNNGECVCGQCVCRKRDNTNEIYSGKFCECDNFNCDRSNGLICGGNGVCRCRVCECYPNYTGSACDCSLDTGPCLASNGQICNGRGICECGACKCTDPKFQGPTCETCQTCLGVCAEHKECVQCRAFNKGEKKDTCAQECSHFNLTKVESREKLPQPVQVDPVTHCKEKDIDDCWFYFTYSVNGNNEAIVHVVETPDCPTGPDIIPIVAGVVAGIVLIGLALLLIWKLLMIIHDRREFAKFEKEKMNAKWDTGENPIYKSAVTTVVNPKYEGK

[16] = target: T2, recombinant mouse αvβ1 integrin …; test: ForteBio Octet Red (BLI); upper end tied to Ab-31 and mαvβ1 by Table 13
[17] = target: T7, recombinant mouse αvβ6 integrin …; test: ForteBio Octet Red (BLI); lower end tied to Ab-33 and mαvβ6 by Table 13

Row | Binder | IC50 [1] [µM] | Kd [2] [µM] | IC50 [3] [µM] | IC50 [4] [µM] | IC50 [5] [µM] | IC50 [6] [µM] | IC50 [7] [µM] | IC50 of latent TGFβ activation (PAI-1 luciferase, TMLC and CHOK1-integrin co-culture) [8] [µM] | IC50 of inhibition of adhesion of CHOK1-mαvβ3 cells to vitronectin matrix [9] [µM] | IC50 of latent TGFβ activation (PAI-1 luciferase, TMLC and CHOK1-integrin co-culture) [10] [µM] | IC50 of latent TGFβ activation (PAI-1 luciferase, TMLC and CHOK1-integrin co-culture) [11] [µM] | IC50 of latent TGFβ activation (PAI-1 luciferase, TMLC and CHOK1-integrin co-culture) [12] [µM] | IC50 of latent TGFβ activation (PAI-1 luciferase, TMLC and CHOK1-integrin co-culture) [13] [µM] | IC50 of inhibition of adhesion of CHOK1-mαvβ5 cells to vitronectin matrix [14] [µM] | IC50 of inhibition of adhesion of CHOK1-α5KO-mαvβ1 cells to fibronectin matrix [15] [µM] | IC50 of latent TGFβ activation (PAI-1 luciferase, TMLC and CHOK1-integrin co-culture) [15] [µM] | Kd [16] [µM] | Kd [17] [µM]
1 | B1 | 0.0177 | 0.00421 | 0.00116 | 0.0148 | 0.2 | 0.096 | 0.0263 | – | – | – | – | – | – | – | – | – | – | –
2 | B2 | – | 0.0484 | 0.00094 | 0.0317 | 0.0478 | 0.0309 | 0.0177 | 0.0061 | 0.001 | 0.0191 | 0.0031 | 0.0135 | 0.0039 | 0.0056 | 0.0015 | 0.0075 | 0.002 to 0.048 | –
3 | B3 | – | 0.035 | 0.00124 | 0.0535 | 0.0197 | 0.0254 | 0.0232 | – | – | – | – | – | – | – | – | – | – | –
4 | B4 | – | 0.0259 | 0.00103 | 0.026 | 0.048 | 0.0164 | 0.0171 | – | – | – | – | – | – | – | – | – | – | –
5 | B5 | 0.0963 | 0.0377 | 0.00128 | 0.0223 | 0.0122 | 0.00749 | 0.0066 | – | – | – | – | – | – | – | – | – | – | 0.002 to 0.048
